The values below come from PMC6351000.

This experiment addresses HIV-1 envelope glycoprotein (Env) of the Tier 1B subtype B strain BaL.01, cell surface-expressed (HIV-1 (subtype B, strain BaL.01)).

In turn, “recombinant two-domain sCD4 (sCD4-183_avi_his.bio) (domain or fragment)” displayed a sCD4 concentration at the peak of the basal epitope exposure curve of V3 crown mAb 1-79 (antibody staining of Env-expressing cells, flow cytometry, increasing sCD4) of 5 µM.
